Laboratory results as given in US20200281934A1, “SSTR-TARGETED CONJUGATES AND FORMULATIONS THEREOF” (TARVEDA THERAPEUTICS, INC., priority 2017, published 2020).
Read-outs that look alike come from different tables or passages of the source.

How the values were obtained:
Assay type in all cases: in vivo, human
[1] = Phase 1 plasma pharmacokinetics of Conjugate 57 during dose escalation; conditions: for AUC(0-inf) / Cmax / clearance / Vd: mean, 1 hour IV infusion; for Vd: read-out: Vz
Experimental: (§1) The acetate salt of Conjugate 57 was administered to a patient as a 1 hour IV infusion once on an every 3 week schedule to escalating cohorts of 2-6 patients. Patients received Conjugate 57 treatment for 3 weeks, 6 weeks, 9 weeks, 12 weeks, 15 weeks, 18 weeks, 21 weeks, 24 weeks, 27 weeks, 30 weeks, 33 weeks, 36 weeks, 39 weeks, 42 weeks, 45 weeks, 48 weeks, 51 weeks, 54 weeks, 57 weeks, or 60 weeks. There were 7 Cohorts with the starting does of 1.0 mg and the highest dose of 25.0 mg. The doses of Conjugate 57 given to pateints were flat: 1.0 mg, 2.0 mg, 4.0 mg, 8.0 mg, 12.0 mg, 18.0 mg and 25.0 mg. Conjugate 57 concentrate for Solution for Injection is a sterile concentrated liquid containing Conjugate 57, mannitol, Polyoxyl 15 Hydroxystearate and acetate buffer. Each dosage unit contains 2.5 mg of Conjugate 57 (free-form) per mL, 50 mg/mL mannitol, 20 mg/mL Polyoxyl 15 Hydroxystearate and pH 4.0-4.8 acetate buffer in a stoppered 10 mL clear vial. Prior to administration, the product was diluted with 5% Mannitol Injection USP. The resulting diluted Conjugate 57 formulation can be infused intravenously.
Serial PK samples were collected prior, during and up to 10 hours after the start of infusion on Day 1 of Cycle 1 and Cycle 3.
Cmax is the maximum (or peak) serum concentration of a drug after the drug has been administrated and before the administration of a second dose. Area under curve to infinity (AUCinf) is a is a theoretical measure of the total exposure of drug to the body from administration till all the drug is eliminated. Clearance (CL) is the volume of plasma cleared of drug per unit time. It is an index of how well a drug is removed irreversibly from circulation. Volume of distribution (Vz) was also measured. Vz represents the degree to which a drug is distributed in body tissue rather than the plasma.

[2] = Phase 1 safety, tolerability and maximum tolerated dose; conditions: patients
Text: The objectives of Phase 1 were to assess the safety and tolerability and determine the maximum tolerated dose and recommended Phase 2 dose of Conjugate 57 when administered intravenously on an every 3 week schedule in patients with somatostatin receptor 2 expressing advanced cancers (including gastroenteropancreatic or lung or thymus or other neuroendocrine tumors or small cell lung cancer or large cell neuroendocrine carcinoma of the lung). It also characterized both acute and chronic toxicities of Conjugate 57, characterized key pharmacokinetic parameters of Conjugate 57, DM1, and peptide ligand from Conjugate 57, assessed the potential of Conjugate 57 to induce anti-drug antibodies, and assessed preliminary anti-tumor activity by using standard tumor response criteria (RECIST 1.1) and pharmacodynamic (PDc) biomarker changes that include chromogranin A (CgA), neuron-specific enolase (NSE), and circulating tumor cells (CTCs) in the blood, and 5-hydroxyindoleacetic acid (5-HIAA) in the urine. In addition, the study explored the relationships between tumor SSTR2 expression as measured by multiple modalities (somatostatin analog radioimaging, immunohistochemistry, CTCs, or exosome analyses) and PK, efficacy, safety, anti-Conjugate 57 antibodies, and PDc biomarker changes in the blood. […]
(§2) Disease response was assessed by duration of response and RECIST 1.1. […]

[3] = test system: somatostatin receptor 2 expressing advanced cancers; test: Phase 1 preliminary anti-tumor activity (RECIST 1.1, duration of response)
Text: (§3) The objectives of Phase 1 were to assess the safety and tolerability and determine the maximum tolerated dose and recommended Phase 2 dose of Conjugate 57 when administered intravenously on an every 3 week schedule in patients with somatostatin receptor 2 expressing advanced cancers (including gastroenteropancreatic or lung or thymus or other neuroendocrine tumors or small cell lung cancer or large cell neuroendocrine carcinoma of the lung). It also characterized both acute and chronic toxicities of Conjugate 57, characterized key pharmacokinetic parameters of Conjugate 57, DM1, and peptide ligand from Conjugate 57, assessed the potential of Conjugate 57 to induce anti-drug antibodies, and assessed preliminary anti-tumor activity by using standard tumor response criteria (RECIST 1.1) and pharmacodynamic (PDc) biomarker changes that include chromogranin A (CgA), neuron-specific enolase (NSE), and circulating tumor cells (CTCs) in the blood, and 5-hydroxyindoleacetic acid (5-HIAA) in the urine. In addition, the study explored the relationships between tumor SSTR2 expression as measured by multiple modalities (somatostatin analog radioimaging, immunohistochemistry, CTCs, or exosome analyses) and PK, efficacy, safety, anti-Conjugate 57 antibodies, and PDc biomarker changes in the blood. Phase 1 study had two parts: Phase 1 Part A (dose escalation) and Phase 1 Part B (early expansion).
All patients were required to have SSTR2 expressing tumors. Tumor SSTR2 expression was determined by imaging within the preceding approximately 6 months, with Octreoscan or ^68Ga-DOTATATE, ^68Ga-DOTATOC, or ^68Ga-DOTANOC.
as §1, with “The resulting diluted Conjugate 57 formulation can be infused intravenously.” left out
as §2

[4] = test system: GI (large bowel) NET; test: Circulating biomarkers of neuroendocrine tumors and symptoms in a GI NET patient; conditions: 18 mg
Text: as §3
A patient with well differentiated, intermediate grade GI (large bowel) NET with metastasis to lymph nodes, bone, lung, and brain was treated with Conjugate 57 at 18 mg. Their tumors progressed on all prior therapies: lanreotide, mTOR inhibitor, and/or 177Lu-DOTATATE. […] Circulating biomarkers of neuroendocrine tumors (NETs), including chromogranin A (CgA), neuron specific enolase (NSE) and circulating tumor cells (CTC), were collected and measured over time. Increased CgA is predictive of poor morphological response, progression free survival (PFS), and overall survival (OS) in pancreatic NETs. Decline in plasma concentration of NSE has been associated with response to treatment. Changes in CTCs has been associated with response to treatment in patients with NETs.

[5] = human, plasma, patients, dose 1 mg
[6] = human, plasma, patients, dose 2 mg
[7] = human, plasma, patients, dose 4 mg
[8] = human, plasma, patients, dose 8 mg
[9] = human, plasma, patients, dose 12 mg
[10] = human, plasma, patients, dose 18 mg
[11] = human, plasma, patients, dose 25 mg

With `COc1cc2cc(c1Cl)N(C)C(=O)C[C@H](OC(=O)[C@H](C)N(C)C(=O)CCSSC[C@H](NC(=O)[C@@H]1CSSC[C@H](NC(=O)[C@H](N)Cc3ccccc3)C(=O)N[C@@H](Cc3ccc(O)cc3)C(=O)N[C@H](Cc3c[nH]c4ccccc34)C(=O)N[C@@H](CCCCN)C(=O)N[C@@H]([C@@H](C)O)C(=O)N1)C(N)=O)[C@]1(C)O[C@H]1[C@H](C)[C@@H]1C[C@@](O)(NC(=O)O1)[C@H](OC)/C=C/C=C(\C)C2` [Conjugate 57] as the molecule, how does the “AUCinf relative to efficacious exposure threshold seen in pre-clinical xenograft studies of SCLC models” value ([1]; 12 mg and higher dose cohorts) read?
Its value is “above efficacious exposure threshold”.

And the half-life ([1]; human, intravenous, plasma, patients, across all dose cohorts, read-out: Median t½ (half-life) (converted))?
The half-life was 1.7 h.

And the AUC(0-inf) [1, 5]?
Its AUC(0-inf) is 0.0146 µM·h.

And the Cmax [1, 5]?
Its Cmax is 7.47 nM.

What about the clearance [1, 5] of the same molecule?
Its clearance is 633 mL/min.

And the Vd [1, 5]?
Its Vd is 65 L.

What about the AUC(0-inf) [1, 6] of the same molecule?
The AUC(0-inf) was 0.0379 µM·h.

What about the Cmax [1, 6] of the same molecule?
The Cmax was 20.5 nM.

What about the clearance [1, 6] of the same molecule?
The clearance was 583 mL/min.

What about the Vd [1, 6] of the same molecule?
The Vd was 80 L.

What about the AUC(0-inf) [1, 7] of the same molecule?
The AUC(0-inf) was 0.118 µM·h.

And the Cmax [1, 7]?
The Cmax was 74.3 nM.

And the clearance [1, 7]?
The clearance was 333 mL/min.

And the Vd [1, 7]?
The Vd was 60 L.

What about the AUC(0-inf) [1, 8] of the same molecule?
The AUC(0-inf) was 0.341 µM·h.

What about the Cmax [1, 8] of the same molecule?
The Cmax was 186 nM.

And the clearance [1, 8]?
The clearance was 250 mL/min.

What about the Vd [1, 8] of the same molecule?
The Vd was 37 L.

What about the AUC(0-inf) [1, 9] of the same molecule?
Its AUC(0-inf) is 0.584 µM·h.

What about the Cmax [1, 9] of the same molecule?
Its Cmax is 293 nM.

And the clearance [1, 9]?
Its clearance is 217 mL/min.

And the Vd [1, 9]?
Its Vd is 33 L.

And the AUC(0-inf) [1, 10]?
The AUC(0-inf) was 0.666 µM·h.

And the Cmax [1, 10]?
Its Cmax is 381 nM.

What about the clearance [1, 10] of the same molecule?
The clearance was 267 mL/min.

And the Vd [1, 10]?
The Vd was 36 L.

And the AUC(0-inf) [1, 11]?
The AUC(0-inf) was 1.31 µM·h.

And the Cmax [1, 11]?
The Cmax was 741 nM.

And the clearance [1, 11]?
Its clearance is 183 mL/min.

What about the Vd [1, 11] of the same molecule?
Its Vd is 50 L.

What about the tolerability ([2]; 1.0-25.0 mg IV every 3 weeks) of the same molecule?
Its tolerability is “well tolerated”.

And the “maximum tolerated dose (MTD)” value ([2]; IV infusion every 3 weeks, flat dose)?
The value was 18 mg.

What about the “ongoing patients with SD for 44 and 45 weeks” value ([3]; NET patients) of the same molecule?
Its value is 2 patients.

And the “patients with stable disease (SD) at 9 weeks” value ([3]; among 15 NET patients evaluable for response)?
The value was 11 patients.

What about the “patients with target lesion shrinkage” value ([3]; dose range 8-18 mg) of the same molecule?
Its value is 3 patients.

What about the “patients with SD sustained for 18-45 weeks” value ([3]; of the 11 NET patients with SD at 9 weeks) of the same molecule?
The value was 8 patients.

And the “disease related symptoms of flushing” value [4]?
The value was “disappeared after first dose”.

What about the “chromogranin A (CgA) level” value ([4]; FIG. 2A) of the same molecule?
The value was “decreased over time”.

What about the “neuron specific enolase (NSE) level” value ([4]; FIG. 2B) of the same molecule?
Its value is “decreased over time”.

And the “circulating tumor cells (CTC) level” value ([4]; FIG. 2C)?
The value was “decreased over time”.
